Reference: patent US20260275319A1 (MAX PLANCK GESELLSCHAFT ZUR F RDERUNG DER WISSENSCHAFTEN E V, published 2026)

T1: MtrB of M. mazei (subunit of the MtrA-MtrH complex), from whole cell extract (Methanosarcina mazei)
T1 sequence (P80655 whole entry, looked up): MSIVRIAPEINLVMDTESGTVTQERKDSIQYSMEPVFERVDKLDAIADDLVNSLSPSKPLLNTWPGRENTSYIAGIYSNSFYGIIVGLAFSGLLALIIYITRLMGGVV

T2: MtrE of M. mazei (subunit of the MtrA-MtrH complex), from whole cell extract (Methanosarcina mazei)
T2 sequence (P80651 whole entry, looked up): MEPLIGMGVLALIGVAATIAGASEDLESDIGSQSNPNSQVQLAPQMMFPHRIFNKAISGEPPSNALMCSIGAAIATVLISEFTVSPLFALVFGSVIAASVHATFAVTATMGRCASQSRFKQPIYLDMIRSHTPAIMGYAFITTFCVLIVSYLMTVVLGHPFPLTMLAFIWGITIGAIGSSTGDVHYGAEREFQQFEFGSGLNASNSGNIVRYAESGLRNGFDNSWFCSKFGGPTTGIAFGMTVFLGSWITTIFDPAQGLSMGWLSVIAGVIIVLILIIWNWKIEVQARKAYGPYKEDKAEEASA

T3: MtrH of M. mazei (subunit of the MtrA-MtrH complex), from whole cell extract (Methanosarcina mazei)
T3 sequence (P80650 1-316, looked up): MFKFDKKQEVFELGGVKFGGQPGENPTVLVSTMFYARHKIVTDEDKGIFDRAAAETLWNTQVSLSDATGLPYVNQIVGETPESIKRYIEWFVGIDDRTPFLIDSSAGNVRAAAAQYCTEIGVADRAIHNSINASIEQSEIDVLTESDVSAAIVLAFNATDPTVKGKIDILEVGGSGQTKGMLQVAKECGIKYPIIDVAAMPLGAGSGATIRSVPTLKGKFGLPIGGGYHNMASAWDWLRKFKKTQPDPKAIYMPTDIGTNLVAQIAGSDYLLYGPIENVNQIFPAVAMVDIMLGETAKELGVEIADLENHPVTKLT

T4: MtrG of M. mazei (subunit of the MtrA-MtrH complex), from whole cell extract (Methanosarcina mazei)
T4 sequence (P80656 whole entry, looked up): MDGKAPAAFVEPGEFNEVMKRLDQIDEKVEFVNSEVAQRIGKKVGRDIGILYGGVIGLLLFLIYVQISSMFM

T5: MtrF of M. mazei (subunit of the MtrA-MtrH complex), from whole cell extract (Methanosarcina mazei)
T5 sequence (P80654 whole entry, looked up): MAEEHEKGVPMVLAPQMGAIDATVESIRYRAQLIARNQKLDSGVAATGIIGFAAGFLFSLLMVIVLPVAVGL


Columns and labels:
[1] = target: T1, MtrB of M. mazei (subunit of the …); test: pulldown from M. mazei whole cell extract with Myc-tagged Adriase, LC-MS/MS (Experiment 2.2)
[2] = target: T2, MtrE of M. mazei (subunit of the …); test: as above
[3] = target: T3, MtrH of M. mazei (subunit of the …); test: as above
[4] = target: T4, MtrG of M. mazei (subunit of the …); test: as above
[5] = target: T1, MtrB of M. mazei (subunit of the …); test: pulldown from M. mazei whole cell extract with HA-tagged Adriase, LC-MS/MS (Experiment 2.3)
[6] = target: T2, MtrE of M. mazei (subunit of the …); test: as above
[7] = target: T3, MtrH of M. mazei (subunit of the …); test: as above
[8] = target: T4, MtrG of M. mazei (subunit of the …); test: as above
[9] = target: T5, MtrF of M. mazei (subunit of the …); test: as above

Binder	Intensity (mass spectrometry) [1]	Intensity (mass spectrometry) [2]	Intensity (mass spectrometry) [3]	Intensity (mass spectrometry) [4]	Intensity (mass spectrometry) [5]	Intensity (mass spectrometry) [6]	Intensity (mass spectrometry) [7]	Intensity (mass spectrometry) [8]	Intensity (mass spectrometry) [9]
M. mazei Adriase with C-terminal Myc-tag (enzyme, also called MM_2909) TLVIAFIGKNGAVMAGDMREITFEGEKPDREKLEKELYSGSIVTDEEMQKKAEEFGVKITVADCKEKVSERNGVLVGEVSSAEGGVVKKRRLYASAGNFAIAELINTEMTLTSQGKGSNFIAFGNEFTKQVANKCFKDNWTKKSNLQDAVKILILCMETVARKTASVSKQFMIVQTASNADVLKVVEKDRNCGSEQKLISEEDL	3.2e+06 arbitrary units	2.2e+06 arbitrary units	6.5e+07 arbitrary units	1.2e+06 arbitrary units	–	–	–	–	–
M. mazei Adriase with C-terminal HA-tag (enzyme, also called MM_2909) TLVIAFIGKNGAVMAGDMREITFEGEKPDREKLEKELYSGSIVTDEEMQKKAEEFGVKITVADCKEKVSERNGVLVGEVSSAEGGVVKKRRLYASAGNFAIAELINTEMTLTSQGKGSNFIAFGNEFTKQVANKCFKDNWTKKSNLQDAVKILILCMETVARKTASVSKQFMIVQTASNADVLKVVEKDRNCGSYPYDVPDYA	–	–	–	–	6.2e+06 arbitrary units	3.8e+06 arbitrary units	2e+08 arbitrary units	1.5e+07 arbitrary units	430000 arbitrary units
